Laboratory results reported in the supplement of paper PMC9112550, “Optimization of the antimicrobial peptide Bac7 by deep mutational scanning” (BMC Biology, 2022).

tested on: Escherichia coli TOP10; assay: shrunken log2 fold change of peptide-encoding DNA abundance (4.5 h post-induction vs induction); higher = less antimicrobial activity (less host growth inhibition); settings: time post-induction: 4.5 h; library: site-saturation at positions 5, 18, 19, 20
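Note: peptides expressed intracellularly from a pBAD plasmid library in pooled LB shake-flask culture, induced with 0.3% L-arabinose, DNA abundance read by NGS, three biological replicates, DESeq2 with apeglm shrinkage.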

Sequence | shrunken log2 fold change
RRIRWRPPRLPRPRPRPDCFPRP | 1.32
RRIRWRPPRLPRPRPRPDCMPRP | 0.259
RRIRWRPPRLPRPRPRPDGRPRP | -0.00151
RRIRWRPPRLPRPRPRPDHKPRP | -0.134
RRIRWRPPRLPRPRPRPDIDPRP | 0.546
RRIRWRPPRLPRPRPRPDIKPRP | -0.323
RRIRWRPPRLPRPRPRPDLFPRP | 0.133
RRIRWRPPRLPRPRPRPDNAPRP | -0.000159
RRIRWRPPRLPRPRPRPDNDPRP | -0.0628
RRIRWRPPRLPRPRPRPDNEPRP | 0.403
RRIRWRPPRLPRPRPRPDPLPRP | 0.221
RRIRWRPPRLPRPRPRPDPTPRP | 0.691
RRIRWRPPRLPRPRPRPDQQPRP | 0.0822
RRIRWRPPRLPRPRPRPDQWPRP | 0.399
RRIRWRPPRLPRPRPRPDSDPRP | 0.0473
RRIRWRPPRLPRPRPRPDSRPRP | -0.251
RRIRWRPPRLPRPRPRPDVHPRP | -0.0103
RRIRWRPPRLPRPRPRPDWLPRP | 0.111
RRIRWRPPRLPRPRPRPDYLPRP | -0.0223
RRIRWRPPRLPRPRPRPDYVPRP | -0.208
RRIRWRPPRLPRPRPRPEAWPRP | 1.02
RRIRWRPPRLPRPRPRPEDHPRP | 0.304
RRIRWRPPRLPRPRPRPEEQPRP | 0.149
RRIRWRPPRLPRPRPRPEHAPRP | 0.921
RRIRWRPPRLPRPRPRPEIIPRP | 0.231

Sequence | shrunken log2 fold change
RRIRWRPPRLPRPRPRPEIKPRP | -0.0674
RRIRWRPPRLPRPRPRPEINPRP | 0.267
RRIRWRPPRLPRPRPRPEKAPRP | -0.0225
RRIRWRPPRLPRPRPRPELCPRP | 0.579
RRIRWRPPRLPRPRPRPEMGPRP | 0.271
RRIRWRPPRLPRPRPRPENMPRP | -0.185
RRIRWRPPRLPRPRPRPENVPRP | 0.0417
RRIRWRPPRLPRPRPRPEPKPRP | 0.393
RRIRWRPPRLPRPRPRPEPPPRP | 0.977
RRIRWRPPRLPRPRPRPESGPRP | 0.347
RRIRWRPPRLPRPRPRPETFPRP | 0.0493
RRIRWRPPRLPRPRPRPEVIPRP | 0.0286
RRIRWRPPRLPRPRPRPEWNPRP | 0.482
RRIRWRPPRLPRPRPRPEWSPRP | 0.0628
RRIRWRPPRLPRPRPRPEWVPRP | 0.927
RRIRWRPPRLPRPRPRPFADPRP | 0.737
RRIRWRPPRLPRPRPRPFCDPRP | 0.189
RRIRWRPPRLPRPRPRPFDEPRP | 0.129
RRIRWRPPRLPRPRPRPFDNPRP | -0.114
RRIRWRPPRLPRPRPRPFECPRP | -0.01
RRIRWRPPRLPRPRPRPFEHPRP | -0.113
RRIRWRPPRLPRPRPRPFESPRP | -0.0622
RRIRWRPPRLPRPRPRPFFGPRP | 0.352
RRIRWRPPRLPRPRPRPFGGPRP | 0.0764
RRIRWRPPRLPRPRPRPFHDPRP | -0.285

Sequence | shrunken log2 fold change
RRIRWRPPRLPRPRPRPFHIPRP | -0.655
RRIRWRPPRLPRPRPRPFIGPRP | -0.38
RRIRWRPPRLPRPRPRPFIQPRP | -0.437
RRIRWRPPRLPRPRPRPFKPPRP | -0.231
RRIRWRPPRLPRPRPRPFMPPRP | -0.714
RRIRWRPPRLPRPRPRPFMVPRP | -0.371
RRIRWRPPRLPRPRPRPFNMPRP | -0.298
RRIRWRPPRLPRPRPRPFQMPRP | -0.692
RRIRWRPPRLPRPRPRPFQSPRP | -0.0153
RRIRWRPPRLPRPRPRPFQVPRP | -0.19
RRIRWRPPRLPRPRPRPFSEPRP | -0.186
RRIRWRPPRLPRPRPRPFSGPRP | 0.0272
RRIRWRPPRLPRPRPRPFSKPRP | -0.0531
RRIRWRPPRLPRPRPRPFSLPRP | 0.141
RRIRWRPPRLPRPRPRPFSMPRP | -0.0921
RRIRWRPPRLPRPRPRPFSQPRP | -0.0772
RRIRWRPPRLPRPRPRPFVFPRP | -0.0764
RRIRWRPPRLPRPRPRPFVHPRP | -0.423
RRIRWRPPRLPRPRPRPFVMPRP | -1.01
RRIRWRPPRLPRPRPRPFVVPRP | -0.242
RRIRWRPPRLPRPRPRPFYTPRP | -0.575
RRIRWRPPRLPRPRPRPGDQPRP | 0.175
RRIRWRPPRLPRPRPRPGDRPRP | 0.468
RRIRWRPPRLPRPRPRPGEDPRP | 0.381
RRIRWRPPRLPRPRPRPGEKPRP | 0.489

Sequence | shrunken log2 fold change
RRIRWRPPRLPRPRPRPGFNPRP | 0.00388
RRIRWRPPRLPRPRPRPGFSPRP | 0.138
RRIRWRPPRLPRPRPRPGGVPRP | 0.427
RRIRWRPPRLPRPRPRPGHDPRP | 0.043
RRIRWRPPRLPRPRPRPGHNPRP | 0.31
RRIRWRPPRLPRPRPRPGHPPRP | 0.0932
RRIRWRPPRLPRPRPRPGKLPRP | -0.368
RRIRWRPPRLPRPRPRPGKSPRP | 0.0772
RRIRWRPPRLPRPRPRPGLIPRP | 0.336
RRIRWRPPRLPRPRPRPGMPPRP | 0.294
RRIRWRPPRLPRPRPRPGMTPRP | 0.167
RRIRWRPPRLPRPRPRPGMVPRP | 0.628
RRIRWRPPRLPRPRPRPGPPPRP | 0.671
RRIRWRPPRLPRPRPRPGQYPRP | 0.0716
RRIRWRPPRLPRPRPRPGTDPRP | 0.216
RRIRWRPPRLPRPRPRPGWKPRP | 0.0668
RRIRWRPPRLPRPRPRPGWWPRP | 0.336
RRIRWRPPRLPRPRPRPHCMPRP | 0.0179
RRIRWRPPRLPRPRPRPHDMPRP | -0.202
RRIRWRPPRLPRPRPRPHDYPRP | 0.0166
RRIRWRPPRLPRPRPRPHEEPRP | 0.0119
RRIRWRPPRLPRPRPRPHEYPRP | -0.147
RRIRWRPPRLPRPRPRPHFQPRP | -0.183
RRIRWRPPRLPRPRPRPHGLPRP | 0.0735
RRIRWRPPRLPRPRPRPHGSPRP | 0.173

Sequence | shrunken log2 fold change
RRIRWRPPRLPRPRPRPHGWPRP | 0.213
RRIRWRPPRLPRPRPRPHHWPRP | 0.13
RRIRWRPPRLPRPRPRPHKIPRP | -0.0312
RRIRWRPPRLPRPRPRPHLFPRP | 0.0795
RRIRWRPPRLPRPRPRPHMCPRP | -0.00659
RRIRWRPPRLPRPRPRPHNCPRP | -0.349
RRIRWRPPRLPRPRPRPHPLPRP | -0.0381
RRIRWRPPRLPRPRPRPHPNPRP | -0.0793
RRIRWRPPRLPRPRPRPHSKPRP | 1.84
RRIRWRPPRLPRPRPRPHSYPRP | -0.0789
RRIRWRPPRLPRPRPRPHVDPRP | -0.127
RRIRWRPPRLPRPRPRPHVMPRP | -0.254
RRIRWRPPRLPRPRPRPHVYPRP | -0.132
RRIRWRPPRLPRPRPRPHWNPRP | -0.676
RRIRWRPPRLPRPRPRPHYCPRP | -0.269
RRIRWRPPRLPRPRPRPHYHPRP | -0.506
RRIRWRPPRLPRPRPRPHYYPRP | -0.581
RRIRWRPPRLPRPRPRPICIPRP | -0.191
RRIRWRPPRLPRPRPRPIDFPRP | -3.4e-05
RRIRWRPPRLPRPRPRPIFIPRP | -0.592
RRIRWRPPRLPRPRPRPIFNPRP | -0.217
RRIRWRPPRLPRPRPRPIGAPRP | 0.0619
RRIRWRPPRLPRPRPRPIHDPRP | -0.118
RRIRWRPPRLPRPRPRPIHWPRP | 0.202
RRIRWRPPRLPRPRPRPIIMPRP | -0.241

Sequence | shrunken log2 fold change
RRIRWRPPRLPRPRPRPIKGPRP | -0.197
RRIRWRPPRLPRPRPRPIKPPRP | -0.0158
RRIRWRPPRLPRPRPRPIKRPRP | 0.21
RRIRWRPPRLPRPRPRPIKVPRP | -0.146
RRIRWRPPRLPRPRPRPINGPRP | -0.0517
RRIRWRPPRLPRPRPRPINIPRP | -1.2
RRIRWRPPRLPRPRPRPIPCPRP | -0.0198
RRIRWRPPRLPRPRPRPIPWPRP | -0.0329
RRIRWRPPRLPRPRPRPIQLPRP | -0.304
RRIRWRPPRLPRPRPRPISNPRP | -0.0292
RRIRWRPPRLPRPRPRPITEPRP | -0.355
RRIRWRPPRLPRPRPRPITPPRP | 0.145
RRIRWRPPRLPRPRPRPIVEPRP | 0.127
RRIRWRPPRLPRPRPRPIYVPRP | -0.0477
RRIRWRPPRLPRPRPRPKCTPRP | 1.21
RRIRWRPPRLPRPRPRPKCWPRP | 0.467
RRIRWRPPRLPRPRPRPKDGPRP | 0.00598
RRIRWRPPRLPRPRPRPKEGPRP | 0.538
RRIRWRPPRLPRPRPRPKGAPRP | 0.732
RRIRWRPPRLPRPRPRPKGEPRP | 0.74
RRIRWRPPRLPRPRPRPKGHPRP | 0.108
RRIRWRPPRLPRPRPRPKHEPRP | 0.288
RRIRWRPPRLPRPRPRPKHNPRP | -0.152
RRIRWRPPRLPRPRPRPKHSPRP | 0.0898
RRIRWRPPRLPRPRPRPKIDPRP | 0.0747
